Data from PMC12698191 (Molecular cell, 2025).

B1: purified human SWELL1 (homo-hexamer) (natural protein)
chain: MIPVTELRYFADTQPAYRILKPWWDVFTDYISIVMLMIAVFGGTLQVTQDKMICLPCKWVTKDSCNDSFRGWAAPGPEPTYPNSTILPTPDTGPTGIKYDLDRHQYNYVDAVCYENRLHWFAKYFPYLVLLHTLIFLACSNFWFKFPRTSSKLEHFVSILLKCFDSPWTTRALSETVVEESDPKPAFSKMNGSMDKKSSTVSEDVEATVPMLQRTKSRIEQGIVDRSETGVLDKKEGEQAKALFEKVKKFRTHVEEGDIVYRLYMRQTIIKVIKFILIICYTVYYVHNIKFDVDCTVDIESLTGYRTYRCAHPLATLFKILASFYISLVIFYGLICMYTLWWMLRRSLKKYSFESIREESSYSDIPDVKNDFAFMLHLIDQYDPLYSKRFAVFLSEVSENKLRQLNLNNEWTLDKLRQRLTKNAQDKLELHLFMLSGIPDTVFDLVELEVLKLELIPDVTIPPSIAQLTGLKELWLYHTAAKIEAPALAFLRENLRALHIKFTDIKEIPLWIYSLKTLEELHLTGNLSAENNRYIVIDGLRELKRLKVLRLKSNLSKLPQVVTDVGVHLQKLSINNEGTKLIVLNSLKKMANLTELELIRCDLERIPHSIFSLHNLQEIDLKDNNLKTIEEIISFQHLHRLTCLKLWYNHIAYIPIQIGNLTNLERLYLNRNKIEKIPTQLFYCRKLRYLDLSHNNLTFLPADIGLLQNLQNLAITANRIETLPPELFQCRKLRALHLGNNVLQSLPSRVGELTNLTQIELRGNRLECLPVELGECPLLKRSGLVVEEDLFNTLPPEVKERLWRADKEQA
B2: purified human PSA (shorter isoform) (enzyme, UniProt P55786-1 45-919, looked up)
chain: MPEKRPFERLPADVSPINYSLCLKPDLLDFTFEGKLEAAAQVRQATNQIVMNCADIDIITASYAPEGDEEIHATGFNYQNEDEKVTLSFPSTLQTGTGTLKIDFVGELNDKMKGFYRSKYTTPSGEVRYAAVTQFEATDARRAFPCWDEPAIKATFDISLVVPKDRVALSNMNVIDRKPYPDDENLVEVKFARTPVMSTYLVAFVVGEYDFVETRSKDGVCVRVYTPVGKAEQGKFALEVAAKTLPFYKDYFNVPYPLPKIDLIAIADFAAGAMENWGLVTYRETALLIDPKNSCSSSRQWVALVVGHELAHQWFGNLVTMEWWTHLWLNEGFASWIEYLCVDHCFPEYDIWTQFVSADYTRAQELDALDNSHPIEVSVGHPSEVDEIFDAISYSKGASVIRMLHDYIGDKDFKKGMNMYLTKFQQKNAATEDLWESLENASGKPIAAVMNTWTKQMGFPLIYVEAEQVEDDRLLRLSQKKFCAGGSYVGEDCPQWMVPITISTSEDPNQAKLKILMDKPEMNVVLKNVKPDQWVKLNLGTVGFYRTQYSSAMLESLLPGIRDLSLPPVDRLGLQNDLFSLARAGIISTVEVLKVMEAFVNEPNYTVWSDLSCNLGILSTLLSHTDFYEEIQEFVKDVFSPIGERLGWDPKPGEGHLDALLRGLVLGKLGKAGHKATLEEARRRFKDHVEGKQILSADLRSPVYLTVLKHGDGTTLDIMLKLHKQADMQEEKNRIERVLGATLLPDLIQKVLTFALSEEVRPQDTVSVIGGVAGGSKHGRKAAWKFIKDNWEELYNRYQGGFLISRLIKLSVEGFAVDKMAGEVKAFFESHPAPSAERTIQQCCENILLNAAWLKRDAESIHQYLLQRKASPPTV

Key:
Assay in all cases: cryo-EM structure
[1] = biological target: B2
[2] = biological target: the molecule itself
[3] = biological target: B1

Binder | binding result [1] | stoichiometry N [2] | stoichiometry N [3]
B1 | binds | 6 | 
B2 |  |  | 3 PSA molecules per SWELL1 hexamer
